Legend:
[1] = molecular target: Tn5 transposase EK54/MA56/LP372 (in-cell assay) (Escherichia coli (transposon Tn5)?) (UniProt Q46731); assay: cell_activity; conditions: at least about 100-fold transposase activity; assay substrate not detailed for this test
[2] = molecular target: Tn5 transposase EK54 (with MA56, pRZ5412-EK54) P372L (Escherichia coli (transposon Tn5)?) (UniProt Q46731); assay: cell_activity; conditions: mutant at position 54 alone; MA56 background inferred
[3] = molecular target: Tn5 transposase LP372 K54E (Escherichia coli (transposon Tn5)?) (UniProt Q46731); assay: cell_activity; conditions: mutant at position 372 alone; MA56 background inferred
[4] = molecular target: T1, Tn5 transposase EK54/MA56/LP372 (modified, hyperactive) (Escherichia coli (transposon Tn5)?) (UniProt Q46731); conditions: in vitro transposition; 0.1 M K glutamate, 25 mM Tris acetate pH 7.5, 10 mM Mg acetate, 20 C 60 min then 37 C 2-3 h; underestimates total events; scale: % of plasmid-receiving cells
T1 sequence: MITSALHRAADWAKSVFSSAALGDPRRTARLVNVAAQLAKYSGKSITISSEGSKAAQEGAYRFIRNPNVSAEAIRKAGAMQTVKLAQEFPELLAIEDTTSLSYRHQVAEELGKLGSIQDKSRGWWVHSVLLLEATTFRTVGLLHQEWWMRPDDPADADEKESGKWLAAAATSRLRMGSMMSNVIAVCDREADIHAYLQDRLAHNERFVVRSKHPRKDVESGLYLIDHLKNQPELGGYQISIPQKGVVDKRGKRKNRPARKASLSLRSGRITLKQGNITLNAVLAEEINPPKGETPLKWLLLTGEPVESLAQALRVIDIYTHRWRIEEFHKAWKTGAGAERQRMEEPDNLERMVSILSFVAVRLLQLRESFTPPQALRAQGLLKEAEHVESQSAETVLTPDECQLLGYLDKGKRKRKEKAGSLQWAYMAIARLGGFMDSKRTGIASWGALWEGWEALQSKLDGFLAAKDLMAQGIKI

Row | Substance | transposase activity (fold activity vs wild type) [1] | transposase activity (fold activity vs wild type) [2] | transposase activity (fold activity vs wild type) [3] | activity [4]
1 | lacZ-containing Tn5 transposable element in E. coli MDW320 | > 100 | 10 | 10 | –
2 | pRZTL1 circular plasmid (two inverted Tn5 19 bp OE termini) | – | – | – | 0.1

From patent publication US5965443
